Assay results from patent US7935343B2.

How the values were obtained:
[1] = target: native human IL-13 released from HDLM-2 cells (human)
[2] = target: human IL-13 (human)
[3] = target: human IL-13 (human); remark: listed apart in the source
[4] = target: non-human primate IL-13 (rhesus and cynomolgus, identical) with carboxyl terminus affinity tag (cynomolgus and rhesus monkey)
[5] = target: human IL-13 variant (Q130R) with carboxyl terminus affinity tag (baculovirus expression) (human)
Chain of human IL-13 variant (Q130R) with carboxyl terminus affinity tag (baculovirus expression) (human) (chain, as listed by the source Q130R Q130R): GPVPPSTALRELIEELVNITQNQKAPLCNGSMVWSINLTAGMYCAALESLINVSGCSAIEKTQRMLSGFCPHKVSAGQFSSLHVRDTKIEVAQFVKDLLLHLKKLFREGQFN

Chain of non-human primate IL-13 (rhesus and cynomolgus, identical) with carboxyl terminus affinity tag (cynomolgus and rhesus monkey) (chain, as listed by the source): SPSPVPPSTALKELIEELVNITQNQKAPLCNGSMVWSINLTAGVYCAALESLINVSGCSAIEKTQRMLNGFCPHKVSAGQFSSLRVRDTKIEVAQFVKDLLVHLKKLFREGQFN

IC50, HDLM-2 cell proliferation [1] | IC50, TF-1 proliferation [2] | IC50, eotaxin release from NHLF [3] | IC50, TF-1 cell proliferation [4] | IC50, TF-1 cell proliferation [5] | Substance
16.7 nM | 1.02 nM | 0.219 nM |  |  | B-B13 (mouse IgG1, Euroclone) (antibody)
 |  |  | 2 nM | 1.9 nM | BAK502G9 IgG4 (antibody)
10.7 nM | 0.471 nM | 0.623 nM |  |  | JES10-5A2 (rat IgG1, Biosource) (antibody)
